# Reference: IntAct's records for PubMed 34502139
# B1: Mitochondrial import receptor subunit TOM70 (Homo sapiens), O94826 (parent)
# chain: MAASKPVEAAVVAAAVPSSGSGVGGGGTAGPGTGGLPRWQLALAVGAPLLLGAGAIYLWSRQQRRREARGRGDASGLKRNSERKTPEGRASPAPGSGHPEGPGAHLDMNSLDRAQAAKNKGNKYFKAGKYEQAIQCYTEAISLCPTEKNVDLSTFYQNRAAAFEQLQKWKEVAQDCTKAVELNPKYVKALFRRAKAHEKLDNKKECLEDVTAVCILEGFQNQQSMLLADKVLKLLGKEKAKEKYKNREPLMPSPQFIKSYFSSFTDDIISQPMLKGEKSDEDKDKEGEALEVKENSGYLKAKQYMEEENYDKIISECSKEIDAEGKYMAEALLLRATFYLLIGNANAAKPDLDKVISLKEANVKLRANALIKRGSMYMQQQQPLLSTQDFNMAADIDPQNADVYHHRGQLKILLDQVEEAVADFDECIRLRPESALAQAQKCFALYRQAYTGNNSSQIQAAMKGFEEVIKKFPRCAEGYALYAQALTDQQQFGKADEMYDKCIDLEPDNATTYVHKGLLQLQWKQDLDRGLELISKAIEIDNKCDFAYETMGTIEVQRGNMEKAIDMFNKAINLAKSEMEMAHLYSLCDAAHAQTEVAKKYGLKPPTL
# partner: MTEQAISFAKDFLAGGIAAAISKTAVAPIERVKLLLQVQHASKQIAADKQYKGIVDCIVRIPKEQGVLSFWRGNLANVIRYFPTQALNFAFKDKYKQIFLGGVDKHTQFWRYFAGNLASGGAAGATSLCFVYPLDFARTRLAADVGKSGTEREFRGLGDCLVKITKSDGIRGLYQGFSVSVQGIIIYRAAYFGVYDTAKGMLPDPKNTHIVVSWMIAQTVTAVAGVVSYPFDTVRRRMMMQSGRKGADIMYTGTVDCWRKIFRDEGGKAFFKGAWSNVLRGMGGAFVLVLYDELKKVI
# B2: Mitochondrial import receptor subunit TOM70 (Homo sapiens), O94826 (parent)
# chain: B1 chain
# Variants of: B1
# Settings: with adt3_human SLC25A6, P12236
row,effect of a mutation on the interaction,Variant
1,decreasing interaction strength,E477A

# Variants of: B2
# Settings: with hs90b_human HSP90AB1, P08238
# Sequence of hs90b_human HSP90AB1, P08238 (P08238 whole entry): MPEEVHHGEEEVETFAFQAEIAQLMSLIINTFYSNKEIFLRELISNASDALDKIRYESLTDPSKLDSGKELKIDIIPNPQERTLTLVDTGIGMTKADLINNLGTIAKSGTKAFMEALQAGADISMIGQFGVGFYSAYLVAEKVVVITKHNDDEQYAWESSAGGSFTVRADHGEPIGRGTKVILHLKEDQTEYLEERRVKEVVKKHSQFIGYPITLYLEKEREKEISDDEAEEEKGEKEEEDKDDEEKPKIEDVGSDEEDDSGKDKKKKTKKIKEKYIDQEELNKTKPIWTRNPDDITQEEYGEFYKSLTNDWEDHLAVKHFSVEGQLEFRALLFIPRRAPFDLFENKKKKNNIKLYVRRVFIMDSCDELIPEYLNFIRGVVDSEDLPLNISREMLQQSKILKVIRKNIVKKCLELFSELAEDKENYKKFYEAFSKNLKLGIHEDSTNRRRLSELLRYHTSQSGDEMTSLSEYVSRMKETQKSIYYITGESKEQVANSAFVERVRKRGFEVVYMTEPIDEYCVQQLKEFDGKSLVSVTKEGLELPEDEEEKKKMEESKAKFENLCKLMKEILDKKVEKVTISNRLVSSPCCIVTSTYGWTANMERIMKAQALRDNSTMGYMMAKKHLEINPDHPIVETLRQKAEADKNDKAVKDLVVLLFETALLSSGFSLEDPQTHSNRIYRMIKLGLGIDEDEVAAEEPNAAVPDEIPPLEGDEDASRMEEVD
row,Variant,effect of a mutation on the interaction
1,R192A,decreasing interaction strength
2,E477A,decreasing interaction strength
